# Laboratory results as given in EP4545559A2 (INSTITUTO BUTANTAN, dated 2025).
# Where two headings read alike, the source gives them in different places.
# B1: Monoclonal antibody S.9.2.B8 (antibody, V domains shown)
# VH: EVQLVETGGGLIQPGGSLRLSCAASGLIVSSNYMTWVRQAPGKGLEWVSVLYSGGTTYYADSVKGRVTISRDNSKNTLYLQVNSLTVADTAVYYCARDLADRGGMDVWGQGTTVTVSS
# VL: SYELTQPPSVSVAPGQTARITCGGNNIGSQSVHWYQQKPGQAPVLVVYDDSDRPSGIPERFSGSKSGNMATLTISRVEAGDEADYYCQVWDSSSDHVVFGGGTKLTVL
# notes: also called mAb S.9.2.B8
# B2: Monoclonal antibody S.9.2.D7 (antibody, V domains shown)
# VH: EVQLLESGGGLIQTGGSLRLSCAASGFTFSSYAMSWVRQAPGKGLEWVSVISDSGGSTYYADSVKGRLTISRDNSKNTLYVQMNSLRAEDTAVYYCAKGKGGIAAAGPAFLFDYWGQGTLVTVSS
# VL: DIQMTQSPSLLSASAGDRVTISCRMSQGISSYLAWYQQKPGKAPELLISSASTLQSGVPSRFSGSGSGTDFTLTISYLQSEDFATYYCQQYYSFPTTFGGGTKVEIK
# notes: also called mAb S.9.2.D7
# B3: Monoclonal antibody S.9.4.C7 (antibody, V domains shown)
# VH: QVQLVESGGGVVQPGRSLRLSCAASGFTFRNYAMHWVRQAPGKGLEWVTVISYDGSDKYYADSVKGRFTISRDNSKNTLYLQMNSLRAEDTAVYYCAKDPVGGYCSGGRCYFHSHYFDYWGQGTLVTVSS
# VL: NFMLTQPHSVSESPGKTVTISCTRSSGSIASYYVQWYQQRPGSSPTTVISEDNQRPSGVPDRFSGSIDSSSNSASLTISGLKTEDEADYYCQSYDSNNHVIFGGGTKLTVL
# notes: also called mAb S.9.4.C7
# B4: Monoclonal antibody S.9.1.C9 (antibody, V domains shown)
# VH: QVQLVESGGGVVQPGRSLGLSCAVSGFTFSNYGMDWVRQAPGKGLEWVAVTSYDGSNKYYADSVKGRFTISRDNSKNTLYLQMNSLRTEDTAVYYCAKHGGGPYCGGGTCYLAYFDYWGQGTLVTVSS
# VL: DIQMTQSPSSLSASVRDRVTITCQASQDISKFLNWYQQKPGKAPKLLIYDASNLETGVPSRFSGSGSGTDFTFTISSLQPEDIATYYCQQYDNLPITFGQGTRLEIKR
# notes: also called mAb S.9.1.C9
# B5: Monoclonal antibody S.9.4.F4 (antibody, V domains shown)
# VH: QVQLVESGGGVVQPGRSLRLSCAASGFTFSHYGMHWVRQAPGKGLEWVAVILYDGSNEYYADSVKGRFTISRDNSKNTLYLQMNSLRAEDTAVYYCAKGAGTYCSGGNCYVAYFDYWGQGTLVTVSS
# VL: AIRMTQSPSSLSASVGDRVTITCQASQDISNYLNWYQQKPGKAPKLLIYDASNLETGVPSRFSGSGSGTDFTVTISSLQPEDFATYYCQQYDNLPLTFGGGTKVEIK
# notes: also called mAb S.9.4.F4
# Assays:
# [1] = target: T1, RBD WT (original Wuhan) (SARS-CoV-2, UniProt P0DTC2 319-541)
# [2] = target: T1, RBD WT (original Wuhan); remark: listed apart in the source
# [3] = target: T1, RBD WT (original Wuhan); remark: listed apart in the source
# [4] = target: T1, RBD WT (original Wuhan); remark: listed apart in the source
# [5] = target: T1, RBD WT (original Wuhan); remark: listed apart in the source
binder,measurement,setting,value
B1,Kd,[1],1.99 nM
B2,Kd,[2],4.85 nM
B3,Kd,[3],0.0407 nM
B4,Kd,[4],0.214 nM
B5,Kd,[5],~0.0336 nM
